The values below come from patent publication US20180127487A1 (Sanofi, published 2018).

In assay [1] the target is T1, His-tagged CHIKV E2 LR2006 (Chikungunya virus strain LR2006, UniProt Q8JUX5 326-1220).
T1 construct: also called CHIKV pE2-E1 antigen derived from CHIKV strain LR2006; pE2-E1 target
Nature of the assay: SPR, His-tagged antigen captured. For orientation: Surface plasmon resonance follows binding to a sensor surface in real time, without labels.

In assay [2] the target is T2, His-tagged CHIKV E2 SL15649 (Chikungunya virus strain SL15649, UniProt Q8JUX5 326-1220).
T2 construct: also called CHIKV pE2-E1 antigen derived from CHIKV strain SL15649; pE2-E1 target
Kind of assay: SPR, His-tagged antigen captured.

Assay [3] concerns the target T3, recombinant human FcRn (human, UniProt P55899 24-297; P61769 21-119).
T3 construct: also called human FcRn receptor
Kind of assay: SPR, human FcRn immobilised; relative to mAb2.

Assay [4] addresses T4, recombinant mouse FcRn (mouse, UniProt Q61559 22-297; P01887 21-119).
T4 sequence 1: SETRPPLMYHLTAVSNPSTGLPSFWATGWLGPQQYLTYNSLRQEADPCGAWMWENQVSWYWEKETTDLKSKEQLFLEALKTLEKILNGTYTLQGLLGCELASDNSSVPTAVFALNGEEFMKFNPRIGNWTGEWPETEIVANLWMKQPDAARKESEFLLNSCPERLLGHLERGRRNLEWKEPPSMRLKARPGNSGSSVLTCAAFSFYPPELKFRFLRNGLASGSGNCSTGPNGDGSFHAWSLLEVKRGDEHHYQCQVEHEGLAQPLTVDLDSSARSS
T4 sequence 2: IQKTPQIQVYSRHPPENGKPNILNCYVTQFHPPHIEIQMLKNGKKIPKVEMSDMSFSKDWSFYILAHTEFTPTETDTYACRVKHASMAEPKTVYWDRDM
Nature of the assay: SPR, mouse FcRn immobilised; relative to mAb2.

In assay [5] the target is T3, recombinant human FcRn. Kind of assay: SPR (Biacore T200), human FcRn immobilised on CM5 chip.
In assay [6] the target is T4, recombinant mouse FcRn. Kind of assay: SPR (Biacore T200), mouse FcRn immobilised on CM5 chip.
Assay [7] has as its target T5, Recombinant human HPC4-tagged FcγRIII-F158 (human, UniProt P08637 17-208).
T5 construct: also called FcγRIIIaF158; not shown: HPC4 tag
Kind of assay: SPR (Biacore 3000), HPC4-tagged FcγRIII-F158 captured on anti-HPC4 CM5 chip, antibody injected 2 min, in duplicate; concentration (900, 300 or 100 nM in the methods) not printed on the sheet.

Assay [8] concerns the target T6, Recombinant human HPC4-tagged FcγRIIIa-V158 (human, UniProt P08637 17-208).
T6 construct: Valine at 158 is a polymorphism, named without an old residue; also called Val158; not shown: HPC4 tag
Nature of the assay: SPR (Biacore 3000), HPC4-tagged FcγRIIIa-V158 captured on anti-HPC4 CM5 chip, antibody injected 2 min, in duplicate; concentration (900, 300 or 100 nM in the methods) not printed on the sheet.

Assay [9] addresses Antigen (E2) (Chikungunya virus). Kind of assay: SPR (Biacore T200), His-tagged antigen captured by anti-His antibody, 1:1 model.
Assay [10] addresses T1, His-tagged CHIKV E2 LR2006. Nature of the assay: SPR, His-tagged antigen captured (example 3, FIG. 5).
Assay [11] has as its target T2, His-tagged CHIKV E2 SL15649. The description is as above.

Where a chain is given by its changes, count along the chain named.

T5 sequence (P08637 17-208): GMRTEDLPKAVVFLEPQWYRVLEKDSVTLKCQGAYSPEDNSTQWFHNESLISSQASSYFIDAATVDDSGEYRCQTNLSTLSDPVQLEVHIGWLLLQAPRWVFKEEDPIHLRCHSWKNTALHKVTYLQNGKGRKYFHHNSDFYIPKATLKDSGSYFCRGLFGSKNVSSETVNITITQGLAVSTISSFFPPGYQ
T3 sequence (P55899 24-297 limits assumed, chain 1 of 2): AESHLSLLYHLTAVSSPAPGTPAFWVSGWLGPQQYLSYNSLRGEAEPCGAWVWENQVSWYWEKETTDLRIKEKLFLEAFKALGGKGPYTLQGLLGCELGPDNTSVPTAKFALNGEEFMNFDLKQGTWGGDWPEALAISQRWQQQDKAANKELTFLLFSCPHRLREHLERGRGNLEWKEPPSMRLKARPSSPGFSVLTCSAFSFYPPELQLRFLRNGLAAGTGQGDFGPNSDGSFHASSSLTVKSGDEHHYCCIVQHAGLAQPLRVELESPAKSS
T3 sequence (P61769 21-119 limits assumed, chain 2 of 2): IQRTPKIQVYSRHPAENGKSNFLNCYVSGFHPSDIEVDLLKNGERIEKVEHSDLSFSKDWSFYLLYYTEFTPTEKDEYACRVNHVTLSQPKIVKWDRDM
T6 sequence (P08637 17-208 F176V): as the sequence (P08637 17-208) above, with F160V counted along it

B1: mAb8 (antibody)
heavy: QVQLVQSGAEVKKPGASVKVSCKVSGYILSKLSVHWVRQAPGKGLEWMGGSEREDGETVYAQKFQGRISLTEDTSIETAYMELSSLSSEDTAVYYCATGGFWSMIGGNGVDYWGQGTLVTVSSASTKGPSVFPLAPSSKSTSGGTAALGCLVKDYFPEPVTVSWNSGALTSGVHTFPAVLQSSGLYSLSSVVTVPSSSLGTQTYICNVNHKPSNTKVDKKVEPKSCDKTHTCPPCPAPELLGGPSVFLFPPKPKDTLYITREPEVTCVVVDVSHEDPEVKFNWYVDGVEVHNAKTKPREEQYNSTYRVVSVLTVLHQDWLNGKEYKCKVSNKALPAPIEKTISKAKGQPREPQVYTLPPSRDELTKNQVSLTCLVKGFYPSDIAVEWESNGQPENNYKTTPPVLDSDGSFFLYSKLTVDKSRWQQGNVFSCSVMHEALHNHYTQKSLSLSPG
light: QAVVTQSPSSLPASVGDRVTITCRASQDIRNNLGWYQQKPGKAPERLIYGTSNLQSGVPSRFSGSGSGTEFTLTISSLQPEDFATYYCLQHNSYPPTFGRGTKVEIKRTVAAPSVFIFPPSDEQLKSGTASVVCLLNNFYPREAKVQWKVDNALQSGNSQESVTEQDSKDSTYSLSSTLTLSKADYEKHKVYACEVTHQGLSSPVTKSFNRGEC
notes: also called mAb2YTE
What is called Kd is the free concentration of one partner at which half of the binding sites on the other are occupied at equilibrium, for simple one-to-one binding. Consider B1, for which the binding result in assay [1], in [2], in assay [7] and in assay [8] was “binds” each time. Besides, the “Affinity Increase (fold)” value is 14.1 fold in assay [3] and 19.5 fold in assay [4]. In addition, the Kd is 23 nM in [5] and 1.2 nM in assay [6].

B2: mAb9 (antibody)
heavy: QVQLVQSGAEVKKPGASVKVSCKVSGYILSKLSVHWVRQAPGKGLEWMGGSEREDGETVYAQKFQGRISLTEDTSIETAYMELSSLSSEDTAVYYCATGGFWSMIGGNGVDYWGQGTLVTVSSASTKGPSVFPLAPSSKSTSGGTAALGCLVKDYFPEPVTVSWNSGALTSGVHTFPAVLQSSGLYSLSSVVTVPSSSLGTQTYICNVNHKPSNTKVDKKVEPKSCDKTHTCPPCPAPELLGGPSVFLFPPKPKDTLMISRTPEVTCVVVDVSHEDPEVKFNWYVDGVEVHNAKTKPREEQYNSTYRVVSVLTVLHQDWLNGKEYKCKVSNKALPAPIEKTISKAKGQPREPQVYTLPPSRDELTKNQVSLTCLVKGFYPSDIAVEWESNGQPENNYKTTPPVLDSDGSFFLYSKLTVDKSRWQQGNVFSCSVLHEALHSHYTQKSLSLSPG
light: B1 light
notes: also called mAb2LS
As for B2, the binding result in assay [1], in assay [2], in assay [7] and in assay [8] was “binds” throughout. Moreover, the figures for the “Affinity Increase (fold)” value in [3] and in assay [4] were 16.6 fold and 3 fold, respectively. Moreover, the Kd in assay [5] amounted to 20 nM; in [6] it was 7.5 nM; in assay [9], 0.25 nM.

B3: mAb13 (antibody)
heavy: B1 heavy with N108Q
light: B1 light
notes: also called mAb2N108QYTE
Consider B3, for which the “Affinity Increase (fold)” value in [3] and in assay [4] was 13.7 fold in each case. The binding result in assay [10], in assay [11], in [7] and in assay [8] was “binds” throughout. Also, the Kd in assay [5] amounted to 24 nM; in [6], 1.6 nM.

B4: mAb14 (antibody)
heavy: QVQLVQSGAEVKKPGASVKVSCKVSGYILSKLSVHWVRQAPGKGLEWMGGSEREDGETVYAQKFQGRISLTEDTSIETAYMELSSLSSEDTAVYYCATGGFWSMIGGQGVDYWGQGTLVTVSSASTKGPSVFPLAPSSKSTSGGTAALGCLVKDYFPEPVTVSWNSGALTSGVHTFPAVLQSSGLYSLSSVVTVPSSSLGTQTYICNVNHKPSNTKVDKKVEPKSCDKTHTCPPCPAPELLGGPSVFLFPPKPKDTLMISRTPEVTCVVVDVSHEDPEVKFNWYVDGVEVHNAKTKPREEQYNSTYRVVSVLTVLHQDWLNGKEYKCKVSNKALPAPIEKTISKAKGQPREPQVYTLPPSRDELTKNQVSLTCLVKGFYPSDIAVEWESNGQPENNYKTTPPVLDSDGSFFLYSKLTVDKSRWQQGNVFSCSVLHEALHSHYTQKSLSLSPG
light: B1 light
notes: also called mAb2N108QLS
As for B4, the “Affinity Increase (fold)” value was found to be 18.2 fold in assay [3] and 3.6 fold in [4]. Further, the binding result in assay [10], in assay [11], in [7] and in [8] was “binds” throughout. The values for the Kd in [5], in assay [6] and in assay [9] were 18 nM, 6.2 nM and 0.12 nM, respectively.
